The values that follow come from patent US20210277119A1 (MARENGO THERAPEUTICS, published 2021).

Substitutions are numbered along the chain they refer to.

First the molecules themselves.
T1: recombinant protein TCRVB 6-5 (human, UniProt A0A0K0K1A5 22-114, limits assumed, captured on a Biotin CAP sensor chip (biotinylated; site not stated))
T1 construct: also called TCRVβ 6-5; TCRβ V6-5*01
T1 sequence (TCR beta): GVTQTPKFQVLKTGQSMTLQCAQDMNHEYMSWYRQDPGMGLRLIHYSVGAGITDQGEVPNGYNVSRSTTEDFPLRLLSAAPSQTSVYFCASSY

B1: A-H.52 (scFv)
scFv: QVQLVQSGAEVKKPGSSVKVSCKASGYSFTLGYIHWVRQAPGQGLEWMGWFFPGSGNIKYNEKFKGRVTITADTSTSTAYMELSSLRSEDTAVYYCAGSYYSYDVLDYWGQGTTVTVSSGGGGSGGGGSGGGGSGGGGSDIQMTQSPSFLSASVGDRVTITCKASQNVGINVVWHQQKPGKAPKALIYSSSHRYSGVPSRFSGSGSGTEFTLTISSLQPEDFATYFCQQFKSYPLTFGQGTKLEIK
notes: Said to be a phage clone and a monovalent scFv; also called phage clone; monovalent scFv
B2: A-H.53 (scFv)
scFv: B1 scFv with T30R, G32T
notes: Called a phage clone; also called phage clone
B3: A-H.54 (scFv)
scFv: B1 scFv with T30H, L31N, G32W
notes: as for B2

The first test has as its target T1, recombinant protein TCRVB 6-5. Kind of test: SPR, TCRVB 6-5 captured on Biotin CAP chip, analyte from 50 nM in two-fold dilutions, 1:1 model, 25 C. The method, then: (§1) TCRVB 6-5 at 5 ug/mL was immobilized on a Biotin CAP Series S Sensor Chip to 60 RU. A-H.52 was diluted to 50 nM and then serially diluted two fold. Association was 120 seconds, dissociation was 300 seconds. This assay was run in 1×HBS-EP+ Buffer pH 7.4 and 25 C. The data was fit using a 1:1 binding model. A-H.52 is a phage clones and is a monovalent scFv. A-H.52 has two mutations on CDRH1.
(§2) TCRVB 6-5 at 5 ug/mL was immobilized on a Biotin CAP Series S Sensor Chip to 60 RU. A-H.53 was diluted to 50 nM and then serially diluted two fold. Association was 120 seconds, dissociation was 300 seconds. This assay was run in 1×HBS-EP+ Buffer pH 7.4 and 25 C. The data was fit using a 1:1 binding model. A-H.53 (phage clone) affinity is in the pM range (Table 16).
(§3) TCRVB 6-5 at 5 ug/mL was immobilized on a Biotin CAP Series S Sensor Chip to 60 RU. A-H.54 was diluted to 50 nM and then serially diluted two fold. Association was 120 seconds, dissociation was 300 seconds. This assay was run in 1×HBS-EP+ Buffer pH 7.4 and 25 C. The data was fit using a 1:1 binding model.
On the technique in general: SPR reads the build-up and loss of mass on a sensor chip optically.
One may read the Kd as the free concentration of one partner at which half of the binding sites on the other are occupied at equilibrium, for simple one-to-one binding. As to B1, the Kd was 1.76 nM.

For the molecule B2, the Kd is 0.165 nM.

B3: the Kd was 2.22 nM.

The next test has the same target. The experiment in a line: SPR, TCRVB 6-5 on Biotin CAP chip, compared with BJM0277. Here is the method:
as §1, §2, §3
Regarding B1, the “fold greater affinity than BJM0277” value amounted to 20 fold.

B2: the “fold greater affinity than BJM0277” value came to 200 fold.

Consider B3, for which the “fold greater affinity than BJM0277” value stood at 17 fold.
